Test results from patent publication US20250382381A1.

Target: mouse ART2 (ART2.2) on T cells (mouse) (UniProt O35975)
Assay: cell-based or functional assay

mouse ART2 (ART2.2) on T cells (mouse), sequence (O35975 21-260): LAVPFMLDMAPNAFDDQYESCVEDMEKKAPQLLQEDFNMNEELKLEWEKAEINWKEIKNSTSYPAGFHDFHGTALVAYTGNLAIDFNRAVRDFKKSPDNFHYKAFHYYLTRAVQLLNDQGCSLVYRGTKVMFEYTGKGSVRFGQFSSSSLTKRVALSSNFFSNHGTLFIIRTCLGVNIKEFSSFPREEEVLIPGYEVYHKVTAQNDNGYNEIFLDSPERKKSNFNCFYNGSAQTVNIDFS

ART2-blocking nanobody (s+16a) (VHH)
ADP-ribosylation of CD4 T cells (eNAD staining, flow cytometry): 9.3%
ADP-ribosylation of CD8 T cells (eNAD staining, flow cytometry): 12.9%
